Results on one molecule are retold here after article PMC10065799, “High-throughput profiling of sequence recognition by tyrosine kinases and SH2 domains using bacterial peptide display” (eLife, 2023).

For the assay, the target named is human c-Src kinase domain (residues 260-528) (human) (UniProt P12931).

On to Ac-GPDECIYDMFPFKKKG-NH2 [Src Consensus peptide Ac-…-NH2], for which the KM (μM) of phosphorylation, Michaelis-Menten analysis, ADP-Quest assay turned out to be 196 µM.
